experiment: soluble on expression in E. coli; label from the status in PepcDB or PDB records

Sequence | soluble on expression in E. coli
MDPSAAFRSFPTQERGILLADTYKPLSLYAADVQVRLSGSAAQVILSLEYVNETNKLVRAIAAYPAPSSYQLQCATLQGPAREISARSYVRSRPLRSVEAGSALCAEPLVDTAVSTVATQSVPWDVSPGESVLMKAVYHAPISVTHRTGEIVFTLPASLIPAVQRPPDVQRGYMKFLDARSQLRHLAQQGGSLRVCVDAQLLVPLRGVVTLEKGPEVVPEMGVTGTSVNVHYVGDTHFQMTYHDDLPKTAYMQVPLCVRAPVAETSEPLRLHTVAASLPPTSAPSDHPTAEVAAAMVVSIAPFLANCPINAEIMFVVDVHSAALGARAAESVMSAIRSLNGTASLVNVILCRDAHRGGAVSLLPDESVQSSAVPQESMLAFMKEEGVQTSSSKGPATLSPHLPSLLHDITTGRGITTSIPAGYVRNVIVLSDGGSQPVDADAVAMVCQVTNAGRACRVHAVALAATADHAVLEALAEACGGCFASAAASGSSEAGGSAVDEAVQAAVSAAAVPCLVDIRTKWDVTGGDIAVASSVQAAAAAPSPLRMATDADGGSIACVPHGTQRLLYGLLASANSQLAVRVFGRVGEMRLEYTASSAIQPPPQSDAADTAAAADATDEESGRAPPMLMTAAAAARIAYLTHILHTTSEDEALEVIALSKRYMLPSPYTTLTDGNSGPGGEHKLGGVVHLPSMQAAAHVELAIRARRVELQAAAALRALRPA | soluble
MDPSSIDLGSIPGGSEQQQHEDGAAAAAGSPKEVFRSQQSLGLITQRFMSLRQRNEVLNLNEVAKELNISKRRVYDVINVLEGLGYVEKVEKNNIRWIGDNNNSEEQNALEARVEMLRQQEKLLELMIRDAQAIIELHFEDPIERPYNYVSKEDIRKTAEPNTKSIIVKSELDTSSSFEIQVTDPSTSGSHDMIVRNKNGVKSHALLFTNDPPEYGDEEDEDDVKKLSSQKRFETSEALRVTLAEMLTDPTTISSSPKHIKLEEPEEIDTEDLETFAPPEFSENKWSQKIGGGLAILWAWLALMPRPQNGNFFSAKFFKFFPETVARKTFVLPPSTSASQSNAPYLPETPGRGLFFSPFKSLIDPCILPSFSDDLTSGYINITTPSRATGAGAGASGQEDEEPVSVMDFFSD | not soluble
MDQFISAFLKSASENNFQQLAKEFLPQYSALISKAGGMLSPETLTGIHKALQEGNLSDVMSQIQKAISAAENAILEVAVIGQSGTGKSSFINALRGLGHEADESADVGTVETTMCKTPYQHPKYPKVIFWDLPGTGTPNFHTDTYLDQVGFANYDFFIIISSSRFSLNDALLAQKIKDAGKKFYFVRTKVDSDLYNEQKAKPIAFKKEKVLQQIRDYCVTNLIKTGVTEPRIFLISNLDLGTFDFPELEETLLKELPGHKRHMFALLLPNISDASIELKKHFLREKIWLEALKSAAVSFIPFMTFFKGFDLPEQEQCLKDYRSYFGLDDQSIKEIAEKLGAPLADIKGELKCLDFWSLVKDNSIIAQATSAAEAFCAVKGGPESSAFQALKVYYRRTQFLNIVVDDAKHLLRKIETVNVA | soluble
MDQNVPISKKLWNIVRFLLYMIRKGVSKNKLIADFNATLKRGKNLMFHQRRRVHAGSTASAALNATSATASSRQEYEFSCSNTPNYSFPFSNMAFMRKKSHNNLFTCGQTPQTLDDDVAAARAVLELLNGVGEKGNVTPADLTVALSPYFPGFGQTPLVRPLRVTDSPFPLTPENGDVANGHVDKAADDFIKKFYKNLNQQKKMIEFS | not soluble
MDRATVVGGAARRLAMIAVIIPAHNEAECMAACLASVFLAASHPELREPVEVIVAVDRCTDATAALAQALGARVIDVPVPGGVGIARAAAASKAIALGADWLAVTDADSRVPADWLVEQRRADADVFCGVVQVEDWLDYSDEVRCRFEQTQATGQGHGRIHGANLGVSAALYQQCGGFPAVTCSEDVALVHALQAINASIAWSPRSVVWTSARRQARAIGGFSDFLKKLEASTCVPALEHHHHHH | not soluble
MDREALQHRVLITVSRSSLFRVVEGILEEGKVSSMASSITEYLLNNRYSRERALEHISVYLESELEKSGIDLDDGVDGISLAILFVYEELLENKSEFFSKIQEKSGHALHPPSSDSEE | not soluble
MDRVDVVADLNDPLSCFPDDSVIEIYAHHVLEHVRNFIQLMQEVHRVCMRDSTVTIVVPHYSNQLAYSDPTHVRFFGLYTMCYFVERVFQPFKRKVPDFYIKEKFLLCEVVYDFEPKNTFLGRLFTRRVQLFINANPKRQEFYERYLCRFFPVASVRYVLSPVKLEHHHHHH | soluble
MDRVLPFRFAEEEGVFWLLDQRRLPQEEVYVPVRTAREMAQAIRDMVVRGAPAIGVSAAFGMVLAHLAGEDLEEADRRLRASRPTAVNLFHALDRMRPFWGDLAGSLLEARRIWREVEETEAAISRHGAQVLWGQVLTHCNTGPLATGGYGTALGAIVEAYRLGRVRHVWVDETRPYLQGARLTAYELQKAGVPATLITDGMAGWLMARGAVDAVVVGVDRMALNGDFANKVGTYALAVLAHHHGIPFYAALPLSSVDPRLASGEGIPIEERSPEEVVAFRGVRIAPEGFPAYHPAFDVTPHRYLTGIITEKGVLYPPFAEGLRRALGLD | soluble
MDSEGASSESSSSGDQLEKWTEEQDELKKKLIAYDDFTWKLSSSTELSQGSEILKYVGGVDMSFCKEDSSVACACLVVLELPSLRVVHHDFSLLRLHVPYVPGFLAFREAPVLLQILQKMRDEKHPFYPQVLMVDGNGILHPRGFGLACHLGVLAHLPTIGVGKNLHHVDGLNQSEVKQSLQLQINEHEQTITLVGNSGITWGVGFRPTLSSLKPIYVSVGHRISLDSAVEVVKITCKYRVPEPIRQADIRSRAYLQKHQTESFKELAVRPPDQTEP | soluble
MDSELKEEIPVHEEFILCGGAETQVLKCGPWTDLFHDQSVKRPKLLIFIIPGNPGFSAFYVPFAKALYSLTNRRFPVWTISHAGHALAPKDKKILTTSEDSNAQEIKDIYGLNGQIEHKLAFLRTHVPKDMKLVLIGHSIGSYFTLQMLKRVPELPVIRAFLLFPTIERMSESPNGRIATPLLCWFRYVLYVTGYLLLKPCPETIKSLLIRRGLQVMNLENEFSPLNILEPFCLANAAYLGGQEMMEVVKRDDETIKEHLCKLTFYYGTIDPWCPKEYYEDIKKDFPEGDIRLCEKNIPHAFITHFNQEMADMIADSLKDDLSKM | soluble
MDSGFTLRAPRNDKRRNPMPAILGTGEHRYRVVENFAKLPDGWQLTDVAAVAVDSLDRVYVFNRGAHPMVVLDREGNFLRSWGEGLFSRAHGLHIDADDNLYCTDDGDHTVRKCTSDGKVLLTIGIPAKPAPFMSGEPFHRCTHTALSPKGEIYVSDGYGNARVHKFTPDGKLIKSWGEPGTDPGQFNIVHNIATDSDGWVYVADRENHRVQVFNGEGKYETQWNNLHRPCALCCCGGRSPTFVIGELGPGLDINRNVPNLGPRLSIVDAKGNRIARLGGEEGPGVASGKFLAPHGIALDSKGDIYVGEVGVTNWATSFPDQEMPAVVRATRCLQKLERVRELEHHHHHH | not soluble
MDSKAKQMILSALCKHFSLDPEPFVGGAGESDIKTLYSNVLKASGKEVSAQNNDVLKWLDFAEGFSSDSKDWFSALEKLNLELATKSVLLGNGLTPSAADVAVFSALHSSVLGLSDSDKEKVPHVIRWVNYIQNKEELSTLFAPIPVKLPEFSFEVPKPAIKVETNSNSKKAAEGVKPVDKPDVQPQLGTKKTEPEEPKKNAAKEKDAKKEKKKPAEPEPAKKEAELSVSLLNIQVGLIRKAWKHPSADSLLVEEIDVGEDKVRQVVSGLAKFCSPEDLTNRLVALITNVKPGKLRDVMSQGLVLCASSEDHSVVEPLLPPAGAKPGERVSFSGIEGKPEDVLNPKKKQLEKITPGLYTDENGVATYKGIQFMTSAGPCTSSIPKATIK | soluble
MDSKQQCVKLNDGHFMPVLGFGTYAPPEVPRSKALEVTKLAIEAGFRHIDSAHLYNNEEQVGLAIRSKIADGSVKREDIFYTSKLWSTFHRPELVRPALENSLKKAQLDYVDLYLIHSPMSLKPGEELSPTDENGKVIFDIVDLCTTWEAMEKCKDAGLAKSIGVSNFNRRQLEMILNKPGLKYKPVCNQVECHPYFNRSKLLDFCKSKDIVLVAYSALGSQRDKRWVDPNSPVLLEDPVLCALAKKHKRTPALIALRYQLQRGVVVLAKSYNEQRIRQNVQVFEFQLTAEDMKAIDGLDRNLHYFNSDSFASHPNYPYSDEYLEHHHHHH | soluble
MDSQKLRTEGKKMLDFVADYWDGIRDRKPLPDVKPGYINDLVPAQAPATPEDWAKIFDDLENVVVNGATHWHHPHFFAYFPTALSYQSIMADILSGGIAGIGFTWKSCPSMTELEMSSLDWVVDLMGLPEHFKNSHNGPGCGIIQSTASDSTMIAIMAARATHVERIKSEPTFMKWVSETGVGKTLKNIFDRVKVNKVDDEASGMITPYFHDPTVFERFVMYCSDQAHSSVEKGAMLSAVRMRKLKATRGFLGNYGVSRETLQNAIKEDRARGYIPFMFLATVGTTCSCGVDQVDELGPVCVEEGLYLHVDAAYAGTFALCEEFKYLIRGMEHVDSFNFNLHKAGMVNFDCSPMWFKNGTHVSRYFNVDAVYLAHEYQTTASDYRHLQVALGRRFRSLKIWFVLRNMGVDKIREYLRRTELLAAEFSKLILENGKFEHFVPQHLGLTCFRLKNSTNADNEKLCNAINDDRRIHLVPSTVHGTYFLRMVVCSQLTTLDDIIYARDVIFELAEKLF | not soluble
MDSRIAIYVLVSASLLYLVNCHKLVHYFNLKINGSDITNTADILLDNYPIMTFDGKDIYPSIAFMVGNKLFLDLYKNIFVEFFRLFRVSVSSQYEELEYYYSCDYTNNRPTIKQHYFYNGEEYTEIDRSKKATNKNSWLITSGFRLQKWFDSEDCIIYLRSLVRRMEDSNKNSKKT | not soluble
MDSVMRKSLFLLLPLVVTNAHAVYVDVRHEYLDDSKANYDRAYISHRFANGVGFAIEAISKSGGDDTNKAFNDLETQGNEYTISYQFKTGDVAWQPGFVLETGNGYSTYKPYFRATWTLNESWWVGARYRFEYVRRSSDIRDDDTINRMDVWAGYKWNNFDWTIEGIYKKADKYDLYDGGKDNYEYNFRTAYIIDQWSPFVEVGNVSVNSNSDERQTRFRVGIGYTF | not soluble
MDTDNNLTFVDFYYRWLEITKLDIINDTSYKRYITAIKAFKDCFGNKLISDIDSLSYQKFLKDYGRGHFLNNGQLRPRTSNTVSKMNNCLKQAFESAVEQGYIKKNLEHHHHHH | not soluble
MDTSLPSAILNNMVTATLILDDGLAIRYANPAAELLFSQSAKRIVEQSLSQLIQHASLDLALLTQPLQSGQSITDSDVTFVVDGRPLMLEVTVSPITWQRQLMLLVEMRKID | soluble
MDTTTTSSLKSAEKKDTDATPRAHSPEIDVEVIKSDCSTPEKQNGAVGNEQQMNNSTSTRRTDSNKNLSPPPQRLRTSSSTSDGTENLISSLSSWDWVTIDGLKLPAVTRNKERYVAVHMVQLKLLSKFPSDIPRDITRKFTMGSHKMTVTEAWTFNTINAVIRKFDLGCQLFTANDELVKLNDVQMFYWNVKLFNLKRVNGQYETAISSAENNVQLLATAMQLKKQVDSDIQVIFK | not soluble
MDVEKIALKHALINAIEHGGKANLKAVIGKVLGENPELRPRAKEIIPIINKVVEEVNSLARDEQLEKLKDIYPEYFEKKEEKKEKKGLPLLPKAEKGKVVTRFAPNPDGAFHLGNARAAILSYEYAKMYGGKFILRFDDTDPKVKRPEPIFYKMIIEDLEWLGIKPDEIVYASDRLEIYYKYAEELIKMGKAYVCTCPPEKFRELRDKGIPCPHRDEPVEVQLERWKKMLNGEYKEGEAVVRIKTDLNHPNPAVRDWPALRIIDNPNHPRTGNKYRVWPLYNFASAIDDHELGVTHIFRGQEHAENETRQRYIYEYFGWEYPVTIHHGRLSIEGVVLSKSKTRKGIEEGKYLGWDDPRLGTIRALRRRGILPEAIKELIIEVGLKKSDATISWENLAAINRKLVDPIANRYFFVADPIPMEVEGAPEFIAEIPLHPDHPERGVRRLKFTPERPVYVSKDDLNLLKPGNFVRLKDLFNVEILEVGDKIRARFYSFEYEIAKKNRWKMVHWVTEGRPCEVIIPEGDELVVRKGLLEKDAKVQVNEIVQFERFGFVRIDRIEGDKVIAIYAHK | soluble

Source: the DeepSol protein solubility set
